# Measurements: the nanobody polyreactivity screen of Harvey et al. (2022)
# Assay: yeast display, Sf9 membrane polyspecificity reagent, FACS + sequencing; frameworks hold sequencing errors
# Outline: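 A nanobody's polyreactivity label depends on the gate it was sorted from. Yeast display cells were stained with 10% biotinylated, detergent-solubilized Sf9 membrane reagent for 1 hour at 4 °C, enriched on streptavidin microbeads and sorted by FACS. The low and high (top ~1%) gates were set on anti-HA fluorescence for expression and streptavidin fluorescence for reagent binding.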
sequence,measurement,value
QVQLVESGGALVQAGGSLRLSCAASGIVFKRYAMGWYRQAPGKEREFVATISYTGGRTYYADSVKGRFTISRDNAKNTVYLQMNSLKPEDTAVYYCATLYRSSKHQPLDYWGQGTQVNVSS,polyreactivity (PSR sort gate),high polyreactivity
QVQLVESGGGLVQAGGSLRISCAASGRTFYYYAMGWYRQAPGKEREFVARITSSGGSTSYADSVKGRFTISRDNAKNTVYLQMNSLKPEDTAVYYFNAVSTYTSDDYDYWGQGSQVTVSS,polyreactivity (PSR sort gate),high polyreactivity
QVQLVESGGGLVQAGGSLRLSCAASGRIFYDYTMGWYRQAPVKERELVATITSGGNTNYADSVKGRFTISRDNAKNTVYLQMNSLKPEDTEVYYCNADFGYWWDGSRYDYWGQGTQVTVSA,polyreactivity (PSR sort gate),low polyreactivity
QVQLVESGGGLVQAGGSLRLSCAASGSTFSGYAMGWYRQAPGKERELVAAISYSGGGTYYEDSVKGRFTISRDNAKNTVYLQMNSLKPEDTAVYYCATLGSLRYYWPGYDYWGQGTQVTVSS,polyreactivity (PSR sort gate),low polyreactivity
QVQLVESGGGLVQAGGSLRLSCAASGRIFKRSVMGWYRQAPGKERELVAAITGRGGSTYYADSVKGRFTISRDNAKNTVYLQMNSLKPEDTAVYYCNAKDAEHYERFNYWGQGTQVTVSS,polyreactivity (PSR sort gate),low polyreactivity
QVQLVESGGGLVQAGGSLRLSCAASGSIFYYYTMGWYRQAPGKERELVAAITWSGSTYYADSVKGRFTISRDNAKNTVYLQMNSLKPEDTAVYYCNADALIAAYKYFPYTYRFNYWGQGTQVTVSS,polyreactivity (PSR sort gate),low polyreactivity
QVQLVESGGGLVQAGGSLRLSCAASGSTFAGYVMGWYRQAPGKERELVADISGRGGNTYYADSVKGRFTISRDNAKNTVYLQMNRLKPEDTAVYYCASILSRRYGYWGQGTQVTVSS,polyreactivity (PSR sort gate),high polyreactivity
QVQLVESGGGLVQAGGSLSLSCAASGRIFSNYAMGWYRQAPGKERELVADISSRGVSTYYADSVKGRFTISRDNAKNPGYLQMKSLKPEDTAVYYCAARGYQRQYYYWGQGTQVTVSS,polyreactivity (PSR sort gate),high polyreactivity
QVQLVESGGGLVQAGVSLRLSCAASGSTFSNYAMGWYRQAPGKERELVAGIDWSGGSTYYADSVKGRFTISRDNEKITVYLQMNSLKPEDTAVYYCAKRVWYHGRKLRGYYWGQGTQVTVSS,polyreactivity (PSR sort gate),low polyreactivity
QVQLVESGGGIVQAGGSLRLSCAASGRIFANYAKGWYRQAPGKERELVAAISRSGGSTSYADSVKGRFTISRDNAKYTVYLQMNSLKPEETAVSYCAVVSPRQSYYYWGQGTQVTVSS,polyreactivity (PSR sort gate),high polyreactivity
QVQLVESGGGLDQAGGTLRISCAASGSIFAPNAMSWNRQAPGKERELVAAITYSGTSTYADSVKGRFTISRDNAKNTVYLQMNSLKPEDTAVYYCAAEGSGVYYHSYDYWGQGTQVTVSS,polyreactivity (PSR sort gate),low polyreactivity
QVQLVESGGGLVQAGGSLRLSCAASGGILNRYAMGWYRQAPGKERELVAAIRWSGGSTYYADSVKGRFTISRDNAKNTVYLQMNSLKPEDTAVYYCAADVYYYHVLDFDYWGQGTLVTVSS,polyreactivity (PSR sort gate),low polyreactivity
QVQLVESGGGLVQAGGSLRLSCAASGSIFNQYAMGWHRQAPGKERELVAAISSDGGRTYYADSVKGRFTISRDNAKNTVYLQMNSLNPEDTAVYYCNKDVRPAYRWYDYWGQDTQVTVSS,polyreactivity (PSR sort gate),low polyreactivity
QVQLVESGGGLVQAGGSLRLSCAASGFTFSLYGMGWYRQAPGKERELVAAIRSGGSTNYADSVKGRFTISRDNAKNTVYLQMNSLKPEDTAVYYCATDIHSVHNNRDKHDYDYWGQGTQVTVSS,polyreactivity (PSR sort gate),low polyreactivity
QVQLVESGGGLVQAGGSLRLICAASGLTFRYYAMGWYRQAPGKERELVAAITRGGSTYYADSVKGRFTISRDNAKNTVYLQMNSLKPEDTAVYYCAAYDVRYNTYDYDYWGQGTQVTVSS,polyreactivity (PSR sort gate),high polyreactivity
QVQLVESGGGLVQAGGSLRLICAASGRIFNRNAMGWYRQAPGKERELVASISSGGRTNYADSVKGRFTISRDNAKNTVYLQMNSLKPEDTAVYYCAAKSPRILLDYWGQGTQVTVSS,polyreactivity (PSR sort gate),low polyreactivity
QVQLVESGGGLVQAGGSLRLSCAASGFTFGNNAMGWYRQAPGTERELVAAISYGGGRTYYADSVKGRFTISRDNAKNTVYLQMNSLKPEDTAVYYCAKDPKYPLSGGYDYWGQGTQVTVSS,polyreactivity (PSR sort gate),low polyreactivity
QVQLVESGGGLVQAGGSLRLSCAASGSIFYANAMGWYRQAPWKEREFVAAISSSGGGTSYADSVKGRFTISRDNAKNTVYLQMNSLKPEDTAVYYFAARVTYGGIPARQIYDYWGQGTQVTVSS,polyreactivity (PSR sort gate),low polyreactivity
QVQLVESGRGLVQAGGSLRLSCAASGSIFWENAMGWYRQAPGKERELVADITIGGSTNYADSVKGRFTISRDNAKNTVYLQMNILKPEDTAVYYCAAYYYWPKYWYWGYDDWGQGTQVTVSS,polyreactivity (PSR sort gate),low polyreactivity
QVQLVESGGGLVQAGGSLRLSCAASGSIFTPYAMGWYRQAPGKERELVAAITYSGGSTYYADSVKGRFTISRDNAKNTVYLLMNSLKPEDTAVYYCAAYFNIYGLEYDYWGQGTQVTVSS,polyreactivity (PSR sort gate),high polyreactivity
QVQLVESGGGLVQAGGSLRLICAASGSTQVYYAMGWYRQAPGKETELVASINHSGARTRYADSVKGRFTISRDNAKNTVYLQMNSLKPEVTAVYYCAAVARSTTYRYNYWGQGTQVTVSS,polyreactivity (PSR sort gate),high polyreactivity
QVQLVESGGGLVQAGGSLRLSFAASGYTFSPYAMGWYRQAPGKERELVAVISSSASTYYADSVKGRFTISRDNAKITVYLQMNSLKPEDTAVYYCAAQPAHPRRYDYWGQGTQVTVSS,polyreactivity (PSR sort gate),high polyreactivity
QVQLEESGGGLVQAGGSLRLSCAASGFTFYYYAMGWYRQAPGKERELVAAINTSGGSTYYADSVKGRFTNSRDNAKNTVYLQMNSLKPVDTAVYYCAAVDGFWTQYPRMGYWGQGTQVTVSS,polyreactivity (PSR sort gate),high polyreactivity
QVQLVESGGGLVQAGGSLRLSCAASGFIFGHYAMGWYRQAPGKERELVAAITRGGRTNYADSVKGRFTISRDNAKNTVYLQMNSLKPEDTAVYYCNALGKALYRSRFYYWGQGTQVTVSS,polyreactivity (PSR sort gate),high polyreactivity
QVQLVESGGGLVQAGGSLRLSCAASGITLYSYAMGWYRPAPGKERELVAAISWDGGGTYYADSVKGRFTISRDNAKNTVYLQMNSLKPEDTAVYYCAADTQYTDGDSWGQGTQVTVSS,polyreactivity (PSR sort gate),high polyreactivity
QVQLVESGGGLVQAGGSLRLSCAASGGNFSPNAMGWYRQAPGKERELVAAISSNGGSTNYADSVKGRFTISRDNAKNTVYLKMNSLKPEDTAVYYCAGLQKRRSYWRPFYWGQGTQVTVSS,polyreactivity (PSR sort gate),low polyreactivity
QVQLVESGGGLVQAGGSLRLSCAASGLIFLYYAMGWYRQAPGKERELVAAISSSGSTYYADSVKGRFTISRDNAKNTVYLQMNSLKPEDTAVYYCAAAGYLYPYRYYYWGQGTQVTVSS,polyreactivity (PSR sort gate),high polyreactivity
QVQLVESGGGLVQAGGSLRLSCAASGRIFLGYAMGWYRQAPGKERELVAAISRSGGRTYYADSVKGRFTISRDNAKNTVYLQMNRLKPEDTAVYYCAARALYPLGYDYWGQGTQVTVSS,polyreactivity (PSR sort gate),high polyreactivity
QVQLVESGGGLVHAGGSIRLSCAASGSIFRLYAMGWYRQAPGKERELVATISQRGGRTYYADSVKGRFTISRDNAKNTVYLQMNILKPEVTAVYYCNADHYYPWLDYWGLGTQVTVSS,polyreactivity (PSR sort gate),high polyreactivity
QVQLVESGGGLVQAGGSLRLSCAASGRPFASYALGWYREAPGKERELVAVITRGVRTYYADSVKGRFTISRDNAKNTVYLQMNSLKPEDTAVYSCAKERYNANYDTSLYDYWGQGTQVTVSS,polyreactivity (PSR sort gate),low polyreactivity
QLQLVESGGGLVQAGGSLRLSCAASGLIFPFYAMGWYRQAPGKERELVAAITSSGNTYYADSVKGLFTISRDNAKNTVYLQMNSLKPEDTAVYYCAADGSRIVKFDYWGQGTQVTVSS,polyreactivity (PSR sort gate),high polyreactivity
QVQLVESGGGLVQAGGSLRISCAASGRTFGRYAMEWYRQAPGKERELVAAISWSGGSTYYADSVKGRFTISRDNAKNTVYLQMNSLKPEATAVYYCAAVTTDGVYAFDYWGQGTQVTVSS,polyreactivity (PSR sort gate),low polyreactivity
QVQLVESGGGLVQAGGSLRLSCAASGSIFSKYTMGWSRQAPGKEWELVAVISDSGASTYYADSVKGRFTISRDNAKNTVYLEMNSLKPEDTAVYYCAAVYRGALTLYYWGQGTQVTVSS,polyreactivity (PSR sort gate),high polyreactivity
QVQLVESGGGLVQAGGSLRLSCAASGFTLLPYAMGWYRQAPGKERELVAAISRRGVSTYYADSVKGRFTISRDNAKNTVYLQMNSLIPEDTSVYYWASRYFTGYGLRTQFYFWGQGTQVTVSS,polyreactivity (PSR sort gate),high polyreactivity
QVQLVESGGGLVQAGGSLRLSCAASGRTFSYYAMGWYRQAPGKERELVAAISSGGSTNYADSVKGRFTISRDNAKNTVYLQMNSLKPEDTAVYYCATSSICGSGRVRWVTYYYWGQGTQVTVSS,polyreactivity (PSR sort gate),low polyreactivity
QVQLVESGGGIVQAGGSLRLSCAASGSSFQTNAMGWYRLAPGKERELVATINRSGDSTYYADSVKGRFTISRDNAKNTVYLQMNSLKPEDTAVYYCNKDWHSQDFSAYNSYDYWGQGTQVTVSS,polyreactivity (PSR sort gate),low polyreactivity
QVQLVESGGGLVQAGGSLRLSCAASGIIFSYNAMGWYRQAPGKERELVAANNSSGGSTNYADSVKGRFTISRDNAKNTVYLQMNSLKPEDTAVYYCAARDATYYGVWRYYGIDDYWGQGTQVTVSS,polyreactivity (PSR sort gate),low polyreactivity
QVQLVESGGGLVHAGGSLRLSCAASGSIFQYNAMGWYRQAPWKERELVAAITSTGDTNYADSVKGRFTISRDNAKNTVYLQMNSLKPEDTAVYYCAADVYGTVRRVGWYYVGEGYDYWGQGTQVTVSS,polyreactivity (PSR sort gate),low polyreactivity
QVQRVESGGDLVQAGGSLRLSCAASGFIYTYYAMGWYRLAPGKERDFVATINWSDGSTRYADSVKGRFTISRDNAKNTVYLQMNSLKPEDTAVYYCAKDWFNRPSGEMDYCGQGTQVTVSS,polyreactivity (PSR sort gate),low polyreactivity
QVQLVESGGGLVQAGGSLRLSCAASGRTFNGNTMGWYRQAPGKERELVAAISRRGGSTYYADSVKGRFTISRDTAKNTVYLQMNSLKPEVTAVYYCATHSTFGYDYWGQGTQVTVSS,polyreactivity (PSR sort gate),high polyreactivity
QVQLVESGGRLVQAGGSHRLSCAASGFIFYDYAMGWYIQAPGKERELVAVITRGGSTYYADSVKGRFTISRDNAKNTVYLLMNSLKPEDTAVYYCAAYWFTPGFTFDYWGQGTQVTVSS,polyreactivity (PSR sort gate),low polyreactivity
QVQLVESGGGLVQAGGSLRLSCAASGSISYKYAMGWYRQAPGKERELVAAISSSGGRTYYADSVKGRFTISRDNAKNTVYLQMNSLKPEDTAVYYCNADVLFYTYYTRGRFDFDYWGQGTQVTVSS,polyreactivity (PSR sort gate),low polyreactivity
QVQLVESGGGLVQAGGILRLSCAASGRIFNGYAMGWYRQAPGKERELVAAITSGGRTYADSVKGRFTISRDNAKNTVYLQMYSLKPEDTAVYYCAADAGRILFSGYDYWGQGTQVTVSS,polyreactivity (PSR sort gate),low polyreactivity
